# Assay results taken from patent US20250179215A1, “PLASMIN-BINDING VHHS” (RHEINISCHE FRIEDRICH-WILHELMS-UNIVERSITÄT BONN, priority 2022, published 2025).
# “Also recorded” adds a separate entry of the source.
# Experiments:
# [1] = test system: citrate-anticoagulated whole blood; experiment: Rotational thrombelastometry clot lysis in tPA-spiked whole blood; assay type: biochemical; conditions: for lysis index at 60 min: concentrations above 1.2 μM, decrease from 65%; for lysis index at 60 min / lysis onset time: tPA 0.5 μg/ml; for lysis onset time: reduced from 47.2 min
# Excerpt: To further test the fibrinolysis-activating properties of VHHs in an ex-vivo model of hyperfibrinolysis, a whole blood based assay can be used whereat citrate-anticoagulated whole blood in the presence of VHHs is spiked with tPA and clot formation and the fibrinolysis rate of the formed clot monitored by thrombelastometry after initiation of clotting by addition of CaCl2) solution containing recombinant TF.
# FIG. 4. Influence of VHHs on endogenous fibrinolysis. (A) Citrate-anticoagulated whole blood was mixed with VHHs A11 or C5 and with tPA to achieve a final concentration of 0.5 μg/ml and clot formation was induced by addition of CaCl2) (0.2 M). (B) Lysis index at 60 min(C) Maximum lysis rates, and (D) lysis onset time were recorded. Mean values and SD were calculated out of three measurements.
# (§1) The impact of VHHs on the fibrinolytic activity in plasma and whole blood was monitored using rotational thrombelastometry using the ROTEM delta system (TEM Innovations Ltd., Munich, Germany). […] After addition of 0.1 μg/ml tPA, coagulation was initiated by addition of recombinant tissue factor (Dade Innovin, Siemens Healthcare, Marburg, Germany) dissolved 1:100 in calcium chloride (0.2 M). The viscoelasticity of the formed clot was measured in terms of key parameters including clotting time, maximal clot firmness, maximum clot elasticity, maximum lysis, lysis index after 60 minutes, and lysis onset time.
# plasmin [2] = target: T1, plasmin (Homo sapiens, UniProt P00747); experiment: Activated factor V-inactivation assay (prothrombinase assay); assay type: biochemical; conditions: for FVa inactivation by plasmin reduced to % of normal: summary statement, concentration not given; for FVa inactivation rate reduced to: plasmin 1.5 nM, rate without VHH = 100%
# T1 construct: human Lys-plasmin which is prepared from homogeneous Glu-plasminogen using uPA; purchased Haematologic Technologies, Inc. (Essex Junction, VT)
# T1 sequence (P00747 97-580 limits assumed): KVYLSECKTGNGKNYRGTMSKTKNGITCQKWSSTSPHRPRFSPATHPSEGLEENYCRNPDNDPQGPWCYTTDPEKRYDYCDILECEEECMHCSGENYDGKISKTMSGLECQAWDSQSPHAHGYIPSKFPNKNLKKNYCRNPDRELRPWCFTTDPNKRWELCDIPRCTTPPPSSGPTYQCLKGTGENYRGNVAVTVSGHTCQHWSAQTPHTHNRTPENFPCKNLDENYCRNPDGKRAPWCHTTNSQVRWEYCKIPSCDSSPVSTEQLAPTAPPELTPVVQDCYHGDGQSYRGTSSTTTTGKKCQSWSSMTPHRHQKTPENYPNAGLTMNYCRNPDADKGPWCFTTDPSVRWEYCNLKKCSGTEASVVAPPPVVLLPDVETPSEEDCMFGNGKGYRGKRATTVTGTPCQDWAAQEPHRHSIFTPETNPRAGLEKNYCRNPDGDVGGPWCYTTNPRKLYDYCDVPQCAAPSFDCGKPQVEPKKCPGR
# T1 sequence (P00747 581-810 limits assumed): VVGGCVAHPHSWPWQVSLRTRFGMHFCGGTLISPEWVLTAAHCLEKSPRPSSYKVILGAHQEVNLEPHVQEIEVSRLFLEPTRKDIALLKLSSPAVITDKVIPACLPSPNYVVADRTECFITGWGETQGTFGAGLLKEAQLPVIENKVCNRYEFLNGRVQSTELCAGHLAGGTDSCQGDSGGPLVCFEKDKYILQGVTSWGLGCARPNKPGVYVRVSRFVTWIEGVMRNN
# Procedure: FIG. 6. (A) Influence of VHHs on plasmin-mediated FVa cleavage. Plasmin (1.5 nM) was incubated with increasing concentrations of VHHs for 30 min at 37° C. After addition of FVa (30 pM) and further incubation for 30 min, FXa (0.52 pM), prothrombin (10 nM) and a fluorogenic thrombin substrate (100 μM) were added and the FVa-dependent thrombin generation was measured. The FVa inactivation rate measured in the absence of VHHs or plasmin inhibitors was set as 100%. […] The data are presented as mean±SD of two independent measurements.
# Plasmin-mediated inactivation of activated factor V (FVa) was measured using a prothrombinase assay as recently described (Hamedani 2020). Briefly, 1.5 nM plasmin in assay buffer (20 mM Tris-HCl, 137 mM NaCl, 10 mg/ml phospholipids, 5 mM CaCl2, 1 mg/ml BSA, pH 7.4) was preincubated with VHHs (0.1 nM-10 μM final concentrations) for 30 min at 37° C. Then, 60 μl of the mixture were mixed with 60 μl of […] FVa. After further incubation for 30 min, 25 μl of the reaction mixture were mixed with 50 μl of 1.3 μM human FXa and 100 μM fluorogenic thrombin substrate (Boc-Asp(OBzl)-Pro-Arg-AMC) and 50 μl of 10 nM human prothrombin. Thrombin catalyzed substrate hydrolysis was monitored at λex of 360 nm and λem of 460 nm using the Synergy 2 microplate reader.
# plasmin [3] = target: T1, plasmin; experiment: Michaelis-Menten kinetics of plasmin-mediated cleavage of fluorogenic peptide substrate; assay type: biochemical; conditions: plasmin 5 nM; VHHs 1 μM, BPTI 3 nM, TXA 7.86 mg/ml; w/o ligand 51.8
# Procedure: Subsequently, 50 μl of the fluorogenic substrate (3.16-3,160 μM final concentration in assay buffer) was added. Substrate hydrolysis rates were monitored by kinetic measurements using the Synergy 2 microplate reader. Apparent Michaelis-Menten constants (Km) and the turn-over number (kcat) values for substrate hydrolysis were calculated from best fit values of the Michaelis-Menten equation and the catalytic efficiencies were expressed as ratios of kcat/Km.
# CI, confidence interval. ^a The turnover number (kcat) was calculated using Vmax values extracted from Michaelis-Menten least squares fit.
# [4] = test system: citrate-anticoagulated pooled normal human plasma; experiment: Rotational thrombelastometry clot formation parameters in plasma; assay type: biochemical; conditions: VHHs or BPTI 2.4 μM, TXA 2.4 μg/ml; tPA 0.1 μg/ml
# Procedure: FIG. 10. The impact of VHHs on the clot formation parameters in plasma monitored by rotational thrombelastometry. […] After addition of tPA to reach a final concentration of 0.1 μg/ml, coagulation was initiated by addition of recombinant tissue factor (Dade® Innovin®) dissolved 1:100 in calcium chloride solution (0.2 M). The viscoelasticity of the formed clot was measured in terms of (A) clotting time, (B) maximum clot firmness, and (C) maximum clot elasticity. A non-binder VHH (GFP-enhancer VHH) was used as negative control. Mean values and SD were calculated out of three measurements.
# as §1
# human plasmin = human plasmin (human, UniProt P00747 97-580; P00747 581-810); experiment: cell-based or functional assay
# Sequence of human plasmin (P00747 97-580 limits assumed, chain 1 of 2): as the sequence (P00747 97-580 limits assumed) above
# Sequence of human plasmin (P00747 581-810 limits assumed, chain 2 of 2): as the sequence (P00747 581-810 limits assumed) above
# Ocriplasmin = Ocriplasmin (Homo sapiens, UniProt P00747); experiment: Biolayer Interferometry (BLI) binding of VHHs to ocriplasmin (miniplasmin); conditions: HIS-tagged VHH on biosensor
# Sequence of Ocriplasmin (P00747 581-810 limits assumed, other chains not shown): as the sequence (P00747 581-810 limits assumed) above
# Procedure: (§2) VHHs binding affinities to human and mouse plasminogen/plasmin were assessed according to Biolayer Interferometry (BLI) using the BLItz system (Pall Life Sciences, Dreieich, Germany) and the Blitz 1.2 software package (Hamedani 2016). […] Afterward, the biosensor was lowered into a tube containing 500 μl of binding buffer to determine kd and koff. All measurements were performed at a shaking speed of 2,200 rpm.
# mouse plasminogen = target: T2, mouse plasminogen (Mus musculus, UniProt P20918); experiment: Biolayer Interferometry (BLI) binding of VHHs to mouse plasminogen; conditions: HIS-tagged VHH on biosensor
# T2 construct: mouse Glu-plasminogen, mouse plasmin; purchased Haematologic Technologies, Inc. (Essex Junction, VT)
# T2 sequence (P20918 20-812 limits assumed): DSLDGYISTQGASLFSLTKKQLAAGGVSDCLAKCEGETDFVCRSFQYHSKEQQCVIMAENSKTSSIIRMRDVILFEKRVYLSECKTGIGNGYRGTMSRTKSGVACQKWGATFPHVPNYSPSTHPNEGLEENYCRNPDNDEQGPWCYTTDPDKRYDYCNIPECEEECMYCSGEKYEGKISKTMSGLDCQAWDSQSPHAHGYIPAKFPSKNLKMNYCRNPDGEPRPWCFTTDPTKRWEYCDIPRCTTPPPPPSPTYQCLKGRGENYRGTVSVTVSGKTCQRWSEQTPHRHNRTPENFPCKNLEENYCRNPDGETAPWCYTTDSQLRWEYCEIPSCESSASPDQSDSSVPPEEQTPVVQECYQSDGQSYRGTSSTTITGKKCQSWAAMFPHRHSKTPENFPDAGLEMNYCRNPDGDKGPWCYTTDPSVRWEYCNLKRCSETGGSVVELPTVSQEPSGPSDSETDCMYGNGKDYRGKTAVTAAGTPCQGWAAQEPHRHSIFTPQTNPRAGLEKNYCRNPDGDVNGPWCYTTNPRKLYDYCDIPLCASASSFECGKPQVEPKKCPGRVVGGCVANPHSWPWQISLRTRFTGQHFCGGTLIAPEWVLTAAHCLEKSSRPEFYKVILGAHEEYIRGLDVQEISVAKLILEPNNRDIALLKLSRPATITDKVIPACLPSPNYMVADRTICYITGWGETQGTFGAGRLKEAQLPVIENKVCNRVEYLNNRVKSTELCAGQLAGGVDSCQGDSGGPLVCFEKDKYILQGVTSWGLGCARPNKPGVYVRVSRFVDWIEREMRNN
# Procedure: as §2
# plasminogen = target: T3, plasminogen (Homo sapiens, UniProt P00747); experiment: Plasmin generation assay (tPA-mediated plasminogen activation, purified system); assay type: biochemical; conditions: for inhibition of plasmin generation at higher concentrations: at the assessed / higher concentrations; for EC50: plasminogen 10 nM, tPA 10 nM, read-out: EC50 of tPA-induced plasmin generation
# T3 construct: Plasma derived human Glu-plasminogen; purchased Haematologic Technologies, Inc. (plasminogen); Boehringer Ingelheim (tPA)
# T3 sequence (P00747 20-810 limits assumed): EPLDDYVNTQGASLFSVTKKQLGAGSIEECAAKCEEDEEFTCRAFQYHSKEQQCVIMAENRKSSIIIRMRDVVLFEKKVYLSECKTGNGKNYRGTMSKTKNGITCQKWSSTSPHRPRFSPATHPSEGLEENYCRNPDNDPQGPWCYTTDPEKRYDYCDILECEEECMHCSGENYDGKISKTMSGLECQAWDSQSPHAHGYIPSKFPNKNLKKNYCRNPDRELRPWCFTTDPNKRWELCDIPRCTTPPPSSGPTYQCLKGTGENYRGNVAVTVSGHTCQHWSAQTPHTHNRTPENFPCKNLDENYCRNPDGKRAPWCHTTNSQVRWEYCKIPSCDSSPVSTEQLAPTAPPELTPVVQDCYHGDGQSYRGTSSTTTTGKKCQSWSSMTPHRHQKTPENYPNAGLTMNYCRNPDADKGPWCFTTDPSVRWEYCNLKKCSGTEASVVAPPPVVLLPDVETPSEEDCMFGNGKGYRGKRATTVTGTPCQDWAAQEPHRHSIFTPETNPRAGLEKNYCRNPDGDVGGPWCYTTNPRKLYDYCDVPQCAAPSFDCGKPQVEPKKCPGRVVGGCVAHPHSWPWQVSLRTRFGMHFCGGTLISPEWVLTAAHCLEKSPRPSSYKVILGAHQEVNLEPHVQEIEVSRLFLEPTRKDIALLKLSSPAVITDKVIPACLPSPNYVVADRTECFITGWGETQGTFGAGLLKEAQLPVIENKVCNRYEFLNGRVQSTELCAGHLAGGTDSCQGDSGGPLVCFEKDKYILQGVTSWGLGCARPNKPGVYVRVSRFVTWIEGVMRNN
# Procedure: In order to assess the influence of VHHs on tPA-mediated plasminogen activation, plasminogen was preincubated with increasing concentrations of VHHs. After addition of tPA, plasmin generation was measured over time using a fluorogenic plasmin peptide substrate.
# FIG. 5. Influence of VHHs on tPA-mediated plasminogen activation. […] After addition of tPA (10 nM final concentration) plasmin generation was measured over time using the fluorogenic plasmin assay. The data are presented as mean±SD of three independent measurements.
# Plasminogen (50 nM) was incubated with VHHs (2 μM to 0.2 μM) for 30 min at 37° C. in assay buffer. Subsequently, 20 μl of 50 nM tPA was added to the mixture and incubated at 37° C. After 3 hours of incubation at 37° C., 50 μl of the mixture were transferred to the wells of black F16 Fluoronunc modules and after addition of 50 μl of the plasmin-specific fluorogenic substrate (800 μM) fluorescence intensities were measured at λex of 360 nm and λem of 460 nm using the Synergy 2 microplate reader.
# tPA = target: T4, tPA (Homo sapiens, UniProt P00750); experiment: Biolayer Interferometry (BLI) binding of VHHs to tPA; conditions: HIS-tagged VHH on biosensor
# T4 construct: purchased Boehringer Ingelheim (Biberach, Germany) Actilyse
# T4 sequence (P00750 36-562): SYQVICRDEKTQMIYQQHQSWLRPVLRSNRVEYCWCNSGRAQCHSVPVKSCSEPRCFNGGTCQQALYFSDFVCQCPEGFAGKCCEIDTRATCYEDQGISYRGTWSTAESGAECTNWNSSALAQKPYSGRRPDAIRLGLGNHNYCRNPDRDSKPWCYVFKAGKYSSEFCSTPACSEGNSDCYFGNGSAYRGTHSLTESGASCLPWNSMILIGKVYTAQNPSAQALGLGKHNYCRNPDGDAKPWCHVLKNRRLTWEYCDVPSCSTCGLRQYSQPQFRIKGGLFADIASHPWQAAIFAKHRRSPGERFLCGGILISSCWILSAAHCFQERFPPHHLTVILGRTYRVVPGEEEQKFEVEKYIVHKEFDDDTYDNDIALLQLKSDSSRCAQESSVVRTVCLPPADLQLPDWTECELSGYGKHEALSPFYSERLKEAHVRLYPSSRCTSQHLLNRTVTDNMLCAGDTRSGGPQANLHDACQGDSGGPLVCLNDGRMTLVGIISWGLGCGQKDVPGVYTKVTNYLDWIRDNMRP
# plasmin [5] = target: T1, plasmin; experiment: Biolayer Interferometry (BLI) binding of VHHs to human plasmin; conditions: HIS-tagged VHH on biosensor
# Procedure: as §2
# plasmin [6] = target: T1, plasmin; experiment: VHHs competition ELISA (plasmin binding to immobilized VHH); conditions: free VHH vs immobilized VHH; plasmin 10 nM
# Procedure: FIG. 2. VHHs competition ELISA. The VHH (A) A11 or (B) C5 was immobilized in the microtiter plate by overnight incubation of 10 μg/ml VHH in 100 μl of coating buffer. […] Data represent the mean±SD of two measurements.
# To assess the competition of VHHs for similar or overlapping binding sites on the plasmin molecule, a competition ELISA was performed. Microtiter (96-well) plates were coated with VHHs (10 μg/ml in coating buffer, 100 μl/well) at 2-8° C. overnight. Wells were washed and non-specific protein-binding sites were blocked with 20 mg/ml bovine serum albumine (BSA) for 2 h at RT. After removing the blocking buffer, wells were overlaid with a reaction mixture containing plasmin (10 nM) and VHHs (0.316 nM-31.6 μM) in buffer (20 mM HEPES, 154 mM NaCl, BSA 1 mg/ml, pH 7.4) for 30 min at RT. After washing the amount of bound plasmin was quantified through hydrolysis rates of the fluorogenic plasmin substrate (300 μM, 100 μl/well). The fluorescence intensity measured in the absence of free VHHs was set as 100%.
# plasmin [7] = target: T1, plasmin; experiment: Influence on catalytic activity of plasmin with fluorogenic peptide substrate; assay type: biochemical; conditions: plasmin 5 nM; for increase in substrate conversion: at molar ratios of VHHs over plasmin of 158 (A11) and 500 (C5)
# Procedure: FIG. 3. Effect of plasmin VHHs on the catalytic activity of plasmin for peptide substrates. […] Mean values and SD were calculated out of three measurements.
# After incubation, 50 μl of the mixtures were transferred to the wells of black F16 Fluoronunc modules (Thermo Fisher Scientific [Nunc]). Subsequently, 50 μl of 800 μM PLM-specific fluorogenic peptide substrate in the assay buffer (H-Ala-Phe-Lys-AMC, Bachem) was added to the wells and the kinetics of plasmin-mediated substrate hydrolysis was monitored using the Synergy 2 microplate reader.
Molecule,FVa inactivation by plasmin reduced to % of normal (plasmin [2]),kcat × 10^3 (s^−1) mean (95% CI) (plasmin [3]),kD mouse plasminogen (mouse plasminogen),lysis index at 60 min [1],lysis onset time [1],inhibition of plasmin generation at higher concentrations (plasminogen),EC50 (plasminogen),kD tPA (tPA),kD human plasmin (plasmin [5]),competition of VHHs for binding site on plasmin molecule (plasmin [6]),increase in substrate conversion (plasmin [7]),further results
"Aprotinin [BPTI, reference compound]",20%,29.6 (29-30) s^−1,–,–,–,–,–,–,–,–,–,"effect on lysis compared to VHHs (FIG. 4C, maximum lysis rates) ([1]; tPA-spiked whole blood): inhibition of lysis; maximal inhibition rate of plasmin-mediated cleavage of FVa (plasmin [2]; BPTI 10 μM): 26%; effect on fibrin clot formation parameters (clotting time, maximum clot firmness, maximum clot elasticity) [4]: does not affect"
human alpha2-antiplasmin (from UniProt P08697 40-491),–,–,–,–,–,–,–,–,–,–,–,residual plasmin activity after incubation with α2AP (human plasmin): < 0.1%
"VHH A11: Plasmin-binding alpaca VHH; variable domain SEQ ID NO: 9, or 11 with C-terminal His6-tag; CDRs SEQ ID NO: 1-3 (protein, A11 VHH) VHH: QVQLVETGGGLVQAGGSLRLSCAASGNIFSINAMDWYRQAPGKERELVAAITSGGTTNYADSVKGRFTISRDNAKDTVYLQMNSLKPEDAAFYYCNADGYYSDYDKNLAEFNSWGQGTQVTVSS",–,67.2 (65-70) s^−1,no reactivity,0%,10.3 min,no inhibitory effect,0.93 nM,weak binding,low nanomolar range,competed for the same or overlapping binding site,approx. 2.5 fold,kD Ocriplasmin (Ocriplasmin; listed as A11): None of these VHHs bind; also recorded: n.b.*; FVa inactivation rate reduced to (plasmin [2]; A11 concentrations above 10^-9 M): 60%; FVa inactivation by plasmin reduced to % of normal (plasmin [2]; listed as A11): 60%; molar ratio of VHHs over plasmin at which approx. 2.5-fold increase in substrate conversion was achieved (plasmin [7]; H-Ala-Phe-Lys-AMC): 158
"VHH C5: Plasmin-binding alpaca VHH; variable domain SEQ ID NO: 10, or 20 with C-terminal His6-tag; CDRs SEQ ID NO: 4-6 (protein, C5 VHH) VHH: QVQLVESGGGLVQAGGSLRLSCAASGRRFMVVAMGWYRQAPGNQRELVASITNGGTTNYAGSVKGRFTISGDSAKNTVYLHMNSLKPEDTAVYYCTTDVVFRDGNGQIQSNWGQGTQVTVSS",80%,69.9 (68-72) s^−1,no reactivity,0%,13.8 min,no inhibitory effect,2.3 nM,weak binding,low nanomolar range,competed for the same or overlapping binding site,approx. 2.5 fold,kD Ocriplasmin (Ocriplasmin; listed as C5): None of these VHHs bind and n.b.; FVa inactivation rate reduced to (plasmin [2]; C5 concentration of 3.16 nM or higher): 78%
